Data from patent US20150368338A1 (Janssen / Centocor, published 2015).
Where a chain is given by its changes, count along the chain named.

T1: IFN-αF (human, UniProt P01568 24-189)
T1 chain: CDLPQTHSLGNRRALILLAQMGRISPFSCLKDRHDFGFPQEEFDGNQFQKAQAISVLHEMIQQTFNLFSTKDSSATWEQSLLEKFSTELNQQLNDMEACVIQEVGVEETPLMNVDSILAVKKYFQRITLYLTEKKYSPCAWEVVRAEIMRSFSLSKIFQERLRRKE

B1: IFWM3455 (antibody, V domains shown)
VH: EVQLVQSGAEVKKPGESLKISCKGSGYSFTSYWIGWVRQMPGKGLEWMGIIDPSDSDTRYSPSFQGQVTISADKSISTAYLQWSSLKASDTAMYYCARHPGLNWAPDFDYWGQGTLVTVSS
VL: DIQMTQSPSSLSASVGDRVTITCRASQSIDGYLNWYQQKPGKAPKLLIYFASSLQSGVPSRFSGSGSGTDFTLTISSLQPEDFATYYCQQSYDLPITFGQGTKVEIK
B2: IFWM3460 (antibody, V domains shown)
VH: B1 VH
VL: B1 VL with Y32F, F50V
B3: IFWM3320 (antibody, IgG1, V domains shown)
VH: B1 VH
VL: B1 VL with D30N, Y32V, Y92H, L94F, I96L
B4: IFWM3322 (antibody, IgG1, V domains shown)
VH: B1 VH
VL: B1 VL with D30A, G31D, Y32F, Y92H, D93S, L94F, I96L
B5: IFWM3328 (antibody, IgG1, V domains shown)
VH: B1 VH
VL: DIQMTQSPSSLSASVGDRVTITCRASQSINNLNWYQQKPGKAPKLLIYWASSLQSGVPSRFSGSGSGTDFTLTISSLQPEDFATYYCQQGYDTPFTFGQGTKVEIK
B6: IFWM3332 (antibody, IgG1, V domains shown)
VH: B1 VH
VL: DIQMTQSPSSLSASVGDRVTITCRASQSIANTNLNWYQQKPGKAPKLLIHWASSLQSGVPSRFSGSGSGTDFTLTISSLQPEDFATYYCQQWYDNPLTFGQGTKVEIK
B7: IFWM3385 (antibody, IgG1, V domains shown)
VH: B1 VH with N103A
VL: B1 VL with D30G, G31D, Y32F, S91A, Y92L, L94F, I96L
B8: IFWM3400 (antibody, IgG1, V domains shown)
VH: B1 VH with N103A
VL: B1 VL with D30A, G31D, Y32F, Y92H, D93S, L94F, I96L
B9: IFWM3405 (antibody, IgG1, V domains shown)
VH: B1 VH with N103A
VL: B6 VL with T32N, W92G, N95T, L97F
B10: IFWM3410 (antibody, IgG1, V domains shown)
VH: B1 VH with N103A
VL: B6 VL
B11: IFWM3416 (antibody, IgG1, V domains shown)
VH: B1 VH with N103A
VL: B6 VL with A30R, W92G, N95T, L97F
B12: Fab IFWM371 (His-tagged, IgG1/kappa isotype) (Fab, V domains shown)
VH: B1 VH
VL: not shown
notes: His-tagged Fab expressed in HEK293 cells for crystallography; C-terminal 6xHis tag; also called FabM371; Fab of IFWM371
B13: Fab of IFWM3525 (Fab, V domains shown)
VH: B1 VH
VL: B6 VL with A30D, T32S, N33Y, H50Y, W51G, W92G, N95F
notes: Fab for crystallography with C-terminal 6xHis tag; also called Fab IFWM3525
B14: IFWM3522 (antibody, IgG1, V domains shown)
VH: B1 VH
VL: B1 VL with D30E, Y32A, S91A, L94F, I96L
B15: IFWM3525 (antibody, IgG1, V domains shown)
VH: B1 VH
VL: B6 VL with A30D, T32S, N33Y, H50Y, W51G, W92G, N95F
B16: Fab IFWM3421 (Fab, V domains shown)
VH: B1 VH
VL: B1 VL with Y32F
notes: also called Fab3421; FabM3421

Molecular target: T2, human IFN-ω (human, UniProt P05000 24-195)
Test: cell-based or functional assay

IC50 (pM), ISRE reporter gene assay | Binder
24 pM | B1
43.5 pM | B2

Molecular target: IFN-αJ1 (human, UniProt P01567 24-189)
Test: cell-based or functional assay

IC50 (pM), ISRE assay | Binder
213 pM | B3
169 pM | B4
1660 pM | B5
487 pM | B6
251 pM | B7
154 pM | B8
26 pM | B9
217 pM | B10
61 pM | B11

Molecular target: IFN-αK (human, UniProt P05013 24-189)
Test: cell-based or functional assay

IC50 (pM), ISRE assay | Binder
34 pM | B3
71 pM | B4
321 pM | B5
76 pM | B6
65 pM | B7
35 pM | B8
22 pM | B9
41 pM | B10
43 pM | B11

Molecular target: T2, human IFN-ω
Test: cell-based or functional assay
Remark: another data set of the same source

IC50 (pM), ISRE assay | Binder
53 pM | B3
59 pM | B4
456 pM | B5
228 pM | B6
68 pM | B7
29 pM | B8
19 pM | B9
89 pM | B10
40 pM | B11

Molecular target: IFN-α4a (human, UniProt P05014 24-189)
Test: cell-based or functional assay

IC50 (pM), ISRE assay | Binder
166 pM | B3
352 pM | B4
1170 pM | B5
519 pM | B6
414 pM | B7
220 pM | B8
86 pM | B9
192 pM | B10
201 pM | B11

Molecular target: T3, IFN-αI (human, UniProt P01571 24-189)
Test: cell-based or functional assay

IC50 (pM), ISRE assay | Binder
355 pM | B3
460 pM | B4
2000 pM | B5
893 pM | B6
225 pM | B7
137 pM | B8
72 pM | B9
183 pM | B10
158 pM | B11

Molecular target: IFN-αWA (human, UniProt P05015 24-189)
Test: cell-based or functional assay

IC50 (pM), ISRE assay | Binder
633 pM | B3
382 pM | B4
3080 pM | B5
947 pM | B6
839 pM | B7
376 pM | B8
216 pM | B9
538 pM | B10
779 pM | B11

Molecular target: T4, Human IFN-ω T80E variant with a C-terminal 6xHis-Tag (human, UniProt P05000 24-195)
Test: complex purified by size exclusion and crystallized

binding result | Binder
binds | B12

Molecular target: T4, Human IFN-ω T80E variant with a …
Test: complex purified by size exclusion and crystallized, X-ray structure

binding result | Binder
binds | B13

Molecular target: IFN-αJ1 (human, UniProt P01567 24-189)
Test: cell-based or functional assay
Remark: another data set of the same source

IC50, ISRE reporter gene assay | Binder
0.134 nM | B14
0.084 nM | B15

Molecular target: IFN-αK (human, UniProt P05013 24-189)
Test: cell-based or functional assay
Remark: another data set of the same source

IC50, ISRE reporter gene assay | Binder
0.029 nM | B14
0.007 nM | B15

Molecular target: human IFN-ω (human, UniProt P05000 24-195)
Test: cell-based or functional assay

IC50, ISRE reporter gene assay | Binder
0.053 nM | B14
0.019 nM | B15

Molecular target: IFN-αG (human, UniProt P01569 24-189)
Test: cell-based or functional assay

IC50, ISRE reporter gene assay | Binder
0.057 nM | B14
0.019 nM | B15

Molecular target: IFN-αWA (human, UniProt P05015 24-189)
Test: cell-based or functional assay
Remark: another data set of the same source

IC50, ISRE reporter gene assay | Binder
0.185 nM | B14
0.066 nM | B15

Molecular target: T3, IFN-αI
Test: cell-based or functional assay
Remark: another data set of the same source

IC50, ISRE reporter gene assay | Binder
0.124 nM | B14
0.24 nM | B15

Molecular target: T1, IFN-αF
Test: cell-based or functional assay

IC50, ISRE reporter gene assay | Binder
0.225 nM | B14
0.082 nM | B15

Molecular target: IFN-α4a (human, UniProt P05014 24-189)
Test: cell-based or functional assay
Remark: another data set of the same source

IC50, ISRE reporter gene assay | Binder
0.163 nM | B14
0.042 nM | B15

Molecular target: IFN-αC (human, UniProt P01566 24-189)
Test: cell-based or functional assay

IC50, ISRE reporter gene assay | Binder
0.077 nM | B14
0.034 nM | B15

Molecular target: IFN-αH2 (human, UniProt P01570 24-189)
Test: cell-based or functional assay

IC50, ISRE reporter gene assay | Binder
0.034 nM | B14
0.015 nM | B15

Molecular target: T4, Human IFN-ω T80E variant with a …
Test: complex crystallized, X-ray structure

binding result | Binder
binds | B16
